Reference: patent US20260231968A1, “AN ECO-FRIENDLY, SUSTAINABLE FOOD PRESERVATIVE” (priority 2023, published 2026)

What was measured:
Assay type in all cases: cell-based
[1] = test system: initial microbial load of plant-based meat substitute; experiment: Microbial load of plant-based meat substitute during storage
Experimental: The ability of psoriasin to extend the shelf life of a plant-based meat substitute was examined under standard storage conditions. Three groups, each stored as an open package at […], were assessed over the course of 16 days. The groups included i) an untreated control, ii) a nisin-treated sample, and iii) a psoriasin-treated sample at 0.65%. A single source of the plant-based meat substitute was used and each group was reproduced in triplicate. The microbial load of the plant-based meat substitute samples was based on the initial microbial load without the addition of antibiotics and without the addition of mold, yeast or bacteria. Samples from each group were taken on days 1, 3, 5, 10, 11 and 16 and total CFU count was determined by plating on LB and PDA agar petri dishes.

[2] = test system: Aspergillus flavus; experiment: Microbial Growth Inhibition Test, broth microdilution optical method
Experimental: The IC90 of psoriasin for several microorganisms was determined by Microbial Growth Inhibition Tests. The tests were performed using the Broth Microdilution Optical Method based on standardized protocols M27 (yeasts) and M38 (filamentous fungi) of the Clinical and Laboratory Standards Institute. […] MOPS, LB (Luria-Bertani), and TSB ([…]) medium types were used, depending on the species being tested. The absorbance was calibrated to each species, and was measured between 450 nm to 650 nm.
In addition, ethyl lauroyl arginate (LAE), a commercially available food preservative, was tested in similar growth conditions as a reference.

[3] = test system: microbial load of hummus spread; experiment: Shelf life of canned hummus spread at natural pH 6.5; conditions: pH 6.5, stored at 6° C in an open container
Experimental: In a further related example, the ability of psoriasin to extend the shelf life of a canned hummus spread preparation was compared with that of nisin, a commonly used preservative at pH 6.5, the natural pH of the preparation. As described above, no antibiotics were added and there was no addition of mold, yeast or bacteria to the hummus spread. The hummus spread was split into 3 groups: i) untreated, ii) nisin-treated, and iii) psoriasin-treated. The hummus spread was stored at 6° C. in an open container. Total CFU count was determined by plating on LB and PDA agar petri dishes.

[4] = test system: Aspergillus flavus; experiment: Chickpea paste assay inoculated with A. flavus; conditions: for fungal load count on YAG-agarose plates: 30° C, after 48 and 72 hours
Experimental: Sterilized and frozen chickpeas (100 g) were boiled for 15 minutes and ground using a blender. The ground chickpeas were treated with chloramphenicol (34 μg/μl) and tetracycline (12.5 μg/μl) to prevent microbial growth. The chickpeas were then inoculated with 500 spores/g of A. flavus and divided into groups of 7 g, and each group was treated with 7 ml of PBS×1 with different His-psoriasin concentrations to reach final concentrations of 0 μM, 50 μM, 100 μM, and 200 μM. The different groups were then divided into 1 g of treated and inoculated chickpeas in 6 well plates (1 g/well) and incubated in a humidified incubator at 30° C. Every day, 1 g of treated chickpeas from each group was diluted in PBS×1 and seeded on YAG-agarose plates to count colonies and calculate the fungi development through time.
For the visual evaluation of the treated/non-treated and inoculated/not-inoculated samples, the samples were prepared in the same way, but incubated at room temperatures and divided into groups of 3 g each.
Chickpeas were boiled and ground and then treated with a combination of chloramphenicol and tetracycline antibiotics (to eliminate bacterial growth) at final concentrations of 34 μg/μl and 12.5 μg/μl, respectively. Samples were divided into ‘inoculated with Aspergillus flavus’ and ‘non-inoculated’, and ‘treated’ and ‘non-treated’ with 180 μM His-psoriasin. All samples were placed in 20° C.
In a follow-up experiment, inoculated chickpea paste samples were treated with three different recombinant His-psoriasin concentrations, namely 50 μM, 100 μM, and 200 μM, and incubated at 30° C. Fungal load count was performed on YAG-agarose plates with antibiotics (chloramphenicol (34 μg/μl) and tetracycline (12.5 μg/μl)) to prevent bacterial growth after 48 and 72 hours.

[5] = test system: microbial growth in bread/rolls; experiment: Microbial growth in baked bread/rolls stored at room temperature; conditions: 0.3% psoriasin admixed with dough before baking, after 10 days at room temperature
Experimental: Bread or roll dough prepared with 150 ml PBS, 0.3% psoriasin, (1.5 g protein in 150 ml DDW) or 0.3% calcium propionate (1.5 g calcium propionate in 150 ml DDW) was baked in a bread maker according to the manufacturer protocol using the following recipe: 180 ml water (or 150 ml PBS+30 ml water), 1 teaspoon of salt, 2 spoons of sugar, 2 spoons of oil, 300 g of flour, and 1 teaspoon of yeast. Following baking, the bread was sliced, each slice/roll was weighed and kept in a separate small smasher bag until analysis.
Bread/rolls were stored at room temperature. Each day, a roll/slice of bread from each group was mixed with autoclaved 1×PBS at a weight ratio of 1:10 to the weighted piece of bread in the bag. The bread was then smashed in a smasher at normal speed for 120 seconds. 10 mL from the smashed bread was removed, vortexed, and diluted with autoclaved 1×PBS as necessary. Samples were plated on both PDA and LB plates and incubated at 30° C. and 37° C., respectively. All samples were performed in duplicate.

[6] = test system: microbial load of hummus salad; experiment: Shelf life of hummus salad at pH 4.8; conditions: pH 4.8, stored at 6° C, psoriasin 0.2%
Experimental: The ability of psoriasin to extend the shelf life of a hummus salad preparation was examined. A commercially-available preparation that is acidified at pH 4.8 and to which 0.2% potassium sorbate was added in order to ensure food safety was compared to a hummus salad at the same pH with and without the addition of psoriasin at the same concentration. No antibiotics were added and there was no addition of mold, yeast or bacteria to the preparation.
Samples were stored at 6° C. and total CFU counts were performed on days 0, 12, 26, and 62 by plating on LB and PDA agar petri dishes. Photos (i.e., visual inspection) were taken every 7 days. As is evident from FIG. 14A, psoriasin extended the shelf life of the hummus salad at pH 4.8 by 2 months.

B1: psoriasin: Recombinant human psoriasin (S100a7) containing a histidine tag, amino acid sequence SEQ ID NO: 11, expression vector pET-28a (protein, listed as Homo sapiens)
chain: MSNTQAERSIIGMIDMFHKYTRRDDKIEKPSLLTMMKENFPNFLSACDKKGTNYLADVFEKKDKNEDKKIDFSEFLSLLGDIATDYHKQSHGAAPCSGGSQ
- increase of shelf life of plant-based meat substitute [1]: 3 Fold
- Yeast & Mold Count ([1]; Day 1): 2 × 10^2
- Total CFU count ([1]; Day 1, open package, psoriasin 0.65%): 1.2 × 10^4 CFU
- Total CFU count ([1]; Day 3): 1.2 × 10^4 CFU
- Yeast & Mold Count ([1]; Day 3): 2 × 10^2
- Total CFU count ([1]; Day 5): 1.2 × 10^4 CFU
- Yeast & Mold Count ([1]; Day 5): 2 × 10^2
- Total CFU count ([1]; Day 10): 6.65 × 10^5 CFU
- Yeast & Mold Count ([1]; Day 10): 2 × 10^2
- Total CFU count ([1]; Day 11): 6.5 × 10^5 CFU
- Yeast & Mold Count ([1]; Day 11): 2 × 10^2
- Total CFU count ([1]; Day 16): 2.4 × 10^6 CFU
- Yeast & Mold Count ([1]; Day 16): 1 × 10^3
- less microbial load than the other two groups (untreated, nisin) ([1]; psoriasin 0.65%): 4 logs
- IC90 ([2]; Aspergillus flavus, RPMI-MOPS): 600 nM
- inhibition of A. flavus growth ([2]; concentrations of 0.325 μM and above): nearly all growth
- inhibition of detectable A. flavus growth ([2]; concentrations of 0.6 μM and above): 100%
- time without microbial growth in hummus spread [3]: over 32 days
- signs of fungal growth in chickpea paste (visual) ([4]; 180 μM, 20° C, after 10 days): did not show any signs of fungal growth
- fungal load count on YAG-agarose plates ([4]; 200 μM): No fungi had developed
- fungal load count on YAG-agarose plates ([4]; lower concentrations (50 μM, 100 μM)): reduced growth was observed
- microbial growth in rolls [5]: no microbial growth was detected
- extension of shelf life of hummus salad [6]: 2 months
